We go through 3 molecules from article PMC4525382, “Functional characterization and expression analysis of rice δ^1-pyrroline-5-carboxylate dehydrogenase provide new insight into the regulation of proline and arginine catabolism” (Frontiers in Plant Science, 2015).

Broadly, the stoichiometry N is the number of molecules, sites or subunits per partner or assembly. In general, IC50 refers to the point on the concentration scale where inhibition reaches its midpoint. For orientation: Ki means the equilibrium dissociation constant of an inhibitor or competing ligand from its target. Lower therefore signals tighter binding. What is called Km is the concentration of substrate that gives half-maximal velocity. The term kcat denotes the maximal rate divided by the concentration of active sites.

Series [1] has as its target rice P5C dehydrogenase, truncated version lacking the predicted mitochondrial transit peptide (Oryza sativa (rice)). The series can be described thus: SEC; gel permeation on Superose 12 HR 10/30; 100 uL of purified protein at 0.5 mg/mL; 50 mM Tris-HCl pH 7.75, 250 mM NaCl (same pattern from 250 mM to 1 M NaCl); column calibrated with mass markers; six runs. Background: SEC sorts molecules by how far they enter the pores of the column.

Series [2] has as its target T1, rice P5C dehydrogenase (OsP5CDH) (Oryza sativa, UniProt B9FLB9).
T1 construct: gene Os05g0536400; mature form lacking the 16-residue predicted mitochondrial transit peptide; N-terminal His6 tag (pET151, TEV-cleavable; tag without effect); E. coli BL21(DE3) pLysS; monomer 57,670 Da; homotetramer 259 kDa
T1 sequence (B9FLB9 17-550): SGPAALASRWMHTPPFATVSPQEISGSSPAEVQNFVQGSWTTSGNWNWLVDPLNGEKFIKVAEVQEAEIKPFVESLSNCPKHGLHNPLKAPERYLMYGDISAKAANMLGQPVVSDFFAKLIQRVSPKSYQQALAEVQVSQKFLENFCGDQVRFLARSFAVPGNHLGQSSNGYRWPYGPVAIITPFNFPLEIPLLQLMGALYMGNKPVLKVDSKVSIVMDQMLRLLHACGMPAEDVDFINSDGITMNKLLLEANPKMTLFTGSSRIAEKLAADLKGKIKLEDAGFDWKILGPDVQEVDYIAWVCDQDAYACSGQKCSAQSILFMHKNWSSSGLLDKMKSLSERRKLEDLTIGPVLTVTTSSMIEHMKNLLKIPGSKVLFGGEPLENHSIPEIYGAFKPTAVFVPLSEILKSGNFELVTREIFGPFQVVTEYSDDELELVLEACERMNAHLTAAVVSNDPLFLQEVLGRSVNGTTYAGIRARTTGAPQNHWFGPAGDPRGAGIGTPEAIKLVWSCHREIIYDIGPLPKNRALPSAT
Nature of the series: NAD(P)H absorbance at […] nm, non-linear regression. In kind it is biochemical.

The target in series [3] is T1, rice P5C dehydrogenase (OsP5CDH). The series can be described thus: NAD(P)H absorbance at […] nm, kinetic analysis. It counts as biochemical.
Substrate in series [4]: O=C(O)[C@@H]1CCC=N1
The series can be described thus: purified protein. It counts as biochemical, Oryza sativa. As to conditions: 10 mM NAD+ co-substrate, 50 mM Hepes-KOH pH 7.5, 35 °C.

Substrate in series [5]: NC(=O)c1ccc[n+]([C@@H]2O[C@H](COP(=O)(O)OP(=O)(O)OC[C@H]3O[C@@H](n4cnc5c(N)ncnc54)[C@H](OP(=O)(O)O)[C@@H]3O)[C@@H](O)[C@H]2O)c1
Nature of the series: purified protein. Particulars: 1 mM L-P5C, 50 mM Hepes-KOH pH 7.5, 35 °C, varied: cofactor. It counts as biochemical, Oryza sativa.

Substrate in series [6]: NC(=O)c1ccc[n+]([C@@H]2O[C@H](COP(=O)(O)OP(=O)(O)OC[C@H]3O[C@@H](n4cnc5c(N)ncnc54)[C@H](O)[C@@H]3O)[C@@H](O)[C@H]2O)c1
The series can be described thus: purified protein. In kind it is biochemical, Oryza sativa. Particulars: 1 mM L-P5C, 50 mM Hepes-KOH pH 7.5, 35 °C, varied: cofactor.

Take “rice P5C dehydrogenase, truncated version lacking the predicted mitochondrial transit peptide (enzyme)”: the stoichiometry N in series [1] is 4.
For the molecule `N=C(N)NCCC[C@H](N)C(=O)O` [arginine], the IC50 in series [2] stood at 87 ± 11 mM. In addition, the Ki in series [3] came to 62.3 ± 2.4 mM.

B1: rice P5C dehydrogenase (OsP5CDH) (Oryza sativa Japonica Group) (protein)
chain: SGPAALASRWMHTPPFATVSPQEISGSSPAEVQNFVQGSWTTSGNWNWLVDPLNGEKFIKVAEVQEAEIKPFVESLSNCPKHGLHNPLKAPERYLMYGDISAKAANMLGQPVVSDFFAKLIQRVSPKSYQQALAEVQVSQKFLENFCGDQVRFLARSFAVPGNHLGQSSNGYRWPYGPVAIITPFNFPLEIPLLQLMGALYMGNKPVLKVDSKVSIVMDQMLRLLHACGMPAEDVDFINSDGITMNKLLLEANPKMTLFTGSSRIAEKLAADLKGKIKLEDAGFDWKILGPDVQEVDYIAWVCDQDAYACSGQKCSAQSILFMHKNWSSSGLLDKMKSLSERRKLEDLTIGPVLTVTTSSMIEHMKNLLKIPGSKVLFGGEPLENHSIPEIYGAFKPTAVFVPLSEILKSGNFELVTREIFGPFQVVTEYSDDELELVLEACERMNAHLTAAVVSNDPLFLQEVLGRSVNGTTYAGIRARTTGAPQNHWFGPAGDPRGAGIGTPEAIKLVWSCHREIIYDIGPLPKNRALPSAT
notes: mature form lacking the 16-residue predicted mitochondrial transit peptide; N-terminal His6 tag (pET151, TEV-cleavable; tag without effect); E. coli BL21(DE3) pLysS; monomer 57,670 Da; homotetramer 259 kDa
Take B1: the Km in series [4] came out at 358 ± 14 µM. For the same molecule, in series [5], the Km was determined as 4695 ± 462 µM, the Vmax is listed as 49.2 ± 1.7 nkat (mg protein)^−1 and the kcat amounted to 3 s⁻¹. Moreover, in series [6], the Km is 644 ± 30 µM, the Vmax is on record as 196.9 ± 2.1 nkat (mg protein)^−1 and the kcat amounted to 12 s⁻¹.
